Laboratory results taken from PMC2630774 (FEBS letters, 2008).

T1: AhR (aryl hydrocarbon receptor), baculovirus expressed 6His fusion (human, UniProt P35869 11-848)
T1 sequence (looked up): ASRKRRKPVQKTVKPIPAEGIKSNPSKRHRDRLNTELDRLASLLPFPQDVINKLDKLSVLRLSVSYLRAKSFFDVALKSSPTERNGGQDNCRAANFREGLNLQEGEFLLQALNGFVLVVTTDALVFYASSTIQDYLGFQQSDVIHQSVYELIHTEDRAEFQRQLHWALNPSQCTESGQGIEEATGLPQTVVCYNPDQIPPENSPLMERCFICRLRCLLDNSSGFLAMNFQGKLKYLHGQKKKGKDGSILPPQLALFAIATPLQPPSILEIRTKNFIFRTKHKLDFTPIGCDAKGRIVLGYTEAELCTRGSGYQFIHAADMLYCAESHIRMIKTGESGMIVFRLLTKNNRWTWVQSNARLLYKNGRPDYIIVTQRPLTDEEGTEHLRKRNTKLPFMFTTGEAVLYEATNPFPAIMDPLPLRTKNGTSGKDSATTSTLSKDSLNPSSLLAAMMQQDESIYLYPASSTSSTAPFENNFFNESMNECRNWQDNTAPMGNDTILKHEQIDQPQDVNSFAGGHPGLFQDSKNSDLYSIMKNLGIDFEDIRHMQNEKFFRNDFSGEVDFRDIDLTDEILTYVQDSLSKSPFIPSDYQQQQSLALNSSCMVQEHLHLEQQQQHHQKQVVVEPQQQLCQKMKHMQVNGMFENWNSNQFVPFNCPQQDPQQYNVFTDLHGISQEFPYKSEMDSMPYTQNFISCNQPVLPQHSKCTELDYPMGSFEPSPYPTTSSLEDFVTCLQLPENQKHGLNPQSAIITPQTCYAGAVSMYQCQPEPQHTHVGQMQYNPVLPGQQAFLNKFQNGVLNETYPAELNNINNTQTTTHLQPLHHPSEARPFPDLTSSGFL

B1: 32P-CΔ553 (AhR deletion construct with C-terminal 553 amino acids deleted, thioredoxin released, 32P-labelled) (domain or fragment, human, UniProt P35869 1-295, looked up)
chain: MNSSSANITYASRKRRKPVQKTVKPIPAEGIKSNPSKRHRDRLNTELDRLASLLPFPQDVINKLDKLSVLRLSVSYLRAKSFFDVALKSSPTERNGGQDNCRAANFREGLNLQEGEFLLQALNGFVLVVTTDALVFYASSTIQDYLGFQQSDVIHQSVYELIHTEDRAEFQRQLHWALNPSQCTESGQGIEEATGLPQTVVCYNPDQIPPENSPLMERCFICRLRCLLDNSSGFLAMNFQGKLKYLHGQKKKGKDGSILPPQLALFAIATPLQPPSILEIRTKNFIFRTKHKLDF
modifications: 32P-phosphate (HMK phosphorylation using 32P-gamma ATP; residue not stated)
B2: unlabelled CΔ553 (AhR deletion construct with C-terminal 553 amino acids deleted, without thioredoxin fusion) (domain or fragment, human, UniProt P35869 1-295, looked up)
chain: B1 chain
B3: TH-CΔ553 (thioredoxin fusion of CΔ553, a deletion construct of human AhR) (domain or fragment, UniProt P35869 1-295, looked up)
chain: B1 chain
B4: Arnt (AhR nuclear translocator), baculovirus expressed 6His fusion (natural protein)
chain: not shown

How the values were obtained:
[1] = molecular target: B4; assay: co-IP
[2] = molecular target: B4; assay: native gel or EMSA
[3] = molecular target: T1, AhR (aryl hydrocarbon receptor), …; assay: native gel or EMSA

B1
binding result [1]: binds

B2
binding result [2]: binds

B3
binding result [2]: binds

B4
binding result [3]: binds
